Test results as given in PMC9884259 (The Journal of Membrane Biology, 2022).
Residue numbers refer to the chain shown, from its start.

B1: Streptolysin O (SLO), wildtype, residues L78-K571, His-tagged (natural protein)
chain: LAPKEMPLESAEKEEKKSEDKKKSEEDHTEEINDKIYSLNYNELEVLAKNGETIENFVPKEGVKKADKFIVIERKKKNINTTPVDISIIDSVTDRTYPAALQLANKGFTENKPDAVVTKRNPQKIHIDLPGMGDKATVEVNDPTYANVSTAIDNLVNQWHDNYSGGNTLPARTQYTESMVYSKSQIEAALNVNSKILDGTLGIDFKSISKGEKKVMIAAYKQIFYTVSANLPNNPADVFDKSVTFKELQRKGVSNEAPPLFVSNVAYGRTVFVKLETSSKSNDVEAAFSAALKGTDVKTNGKYSDILENSSFTAVVLGGDAAEHNKVVTKDFDVIRNVIKDNATFSRKNPAYPISYTSVFLKNNKIAGVNNRTEYVETTSTEYTSGKINLSHQGAYVAQYEILWDEINYDDKGKEVITKRRWDNNWYSKTSPFSTVIPLGANSRNIRIMARECTGLAWEWWRKVIDERDVKLSKEINVNISGSTLSPYGSITYK
B2: SLO (C/A)-SS mutant ([change], [change], [change]), residues L78-K571, His-tagged (natural protein)
chain: B1 chain with G51C, S184C, C453A

What was measured:
high-speed AFM = target: the molecule itself; experiment: high-speed AFM
[1] = target: B1; experiment: high-speed AFM; details: both partners purified

Row | Binder | binding result (high-speed AFM) | binding result [1]
1 | B1 | binds | –
2 | B2 | binds | binds
